Source: article PMC5653649, “Evolution of AF6-RAS association and its implications in mixed-lineage leukemia” (Nature Communications, 2017)

B1: AF6 RA1 domain (residues 37–136) (domain or fragment, UniProt Q9QZQ1 37-136, looked up)
chain: LEFHGVMRFYFQDKAAGNFATKCIRVSSTATTQDVIETLAEKFRPDMRMLSSPKYSLYEVHVSGERRLDIDEKPLVVQLNWNKDDREGRFVLKNENDAIP
notes: AF6/afadin first RAS association (RA1) domain, residues 37-136; 15N-labelled for the NMR titration; The monomer fraction was used for crystallisation; also called core RA1 domain; core AF6 RA domain; source: E. coli BL21, purified (glutathione resin, thrombin cleavage, size exclusion chromatography); not shown: GST, N-terminal, cleaved
B2: AF6 αN-extended RA1 domain (residues 6–136) (domain or fragment, UniProt Q9QZQ1 6-136, looked up)
chain: RDEERRKLADIIHHWNANRLDLFEISQPTEDLEFHGVMRFYFQDKAAGNFATKCIRVSSTATTQDVIETLAEKFRPDMRMLSSPKYSLYEVHVSGERRLDIDEKPLVVQLNWNKDDREGRFVLKNENDAIP
notes: AF6/afadin αN helix and RA1 domain, residues 6-136; also called αN-RA1; αN/RA1; source: E. coli BL21, purified (glutathione resin, thrombin cleavage, size exclusion chromatography); not shown: GST, N-terminal, cleaved
B3: BTBD18 (residues 97–134) fused upstream of the ARAF RBD domain (residues 17–94) (other, UniProt B2RXH4 97-134, looked up)
chain: EMEVSQEEAQDVLSAARQLRVSELESLQLEGGKLVKAPAVGTVKVYLPNKQRTVVTVRDGMSVYDSLDKALKVRGLNQDCCVVYRLIKGRKTVTAWDTAIAPLDGEELIVEVLEDV
notes: human BTBD18, Gene ID 643376, residues 97-134 (helix-turn-helix with a hydrophobic patch); source: E. coli BL21, purified (expressed from pGEX-4T2); not shown: GST, N-terminal, cleaved
B4: AF6 αN helix fragment (residues 6–36) (domain or fragment, UniProt Q9QZQ1 6-36, looked up)
chain: RDEERRKLADIIHHWNANRLDLFEISQPTED
notes: AF6/afadin residues 6-36 encompassing the αN helix (31 residues); also called AF6 6–36; αN helix alone; source: E. coli BL21, purified (glutathione resin, thrombin cleavage, size exclusion chromatography); not shown: GST, N-terminal, cleaved

Tests used:
[1] = target: the molecule itself; assay: SEC; size exclusion chromatography of the purified domain at several concentrations (S75 or S200 column)
[2] = target: T1, H-RAS (residues 1–171), GMPPNP-loaded (human, UniProt P01112 1-171); assay: ITC; Microcal VP-ITC; RA domains titrated into GMPPNP-loaded RAS; 20 mM Tris-HCl pH 7.5, 100 mM NaCl, 5 mM MgCl2, 1 mM DTT; 25 °C; conditions: both partners purified
T1 construct: wild-type H-RAS, human cDNA, Gene ID 3265, residues 1-171; also called RAS-GMPPNP; source: E. coli BL21, purified (Ni-NTA, thrombin, size exclusion chromatography), loaded with GMPPNP; not shown: HIS tag, N-terminal, cleaved

[3] = target: the molecule itself; assay: native gel or EMSA; blue native PAGE (BN–PAGE), 15% acrylamide; proteins purified by size exclusion chromatography and concentrated to 100–150 μM
[4] = target: B1; assay: NMR titration; AF6 6–36 fragment titrated into 15N-AF6 RA1; 1H/15N-HSQC; 25 °C; 20 mM Tris-HCl pH 7.5, 100 mM NaCl, 1 mM DTT, 5 mM MgCl2, 10% D2O; conditions: both partners purified

Binder: B1
stoichiometry N [1]: 2
Kd [2]: 17.8 µM

Binder: B2
Kd [2]: 4.1 µM

Binder: B3
stoichiometry N [3]: 2

Binder: B4
binding result [4]: binds
